This assay concerns the target Concanavalin A (UniProt P02866). As to the kind of experiment: ConA sepharose affinity chromatography, load and eluate by RP-HPLC.

As to “recombinant transferrin (S32C, S415A, T613A) (from UniProt P02787 20-698) (ligand)”, the Analysis 1 Eluate Recovery % (w/w) (ConA binding material) is 0.25 % (w/w) and the Analysis 2 Eluate Recovery % (w/w) (ConA binding material) was 0.26 % (w/w).

“recombinant transferrin (S32A, S415A, T613A) (from UniProt P02787 20-698) (ligand)”: the Analysis 1 Eluate Recovery % (w/w) (ConA binding material) was 0.15 % (w/w).

Values taken from patent US20140031294A1.
